The chains are these.
B1: PgBamJ, BamJ of P. gingivalis ATCC 33277 (natural protein, UniProt B2RH82 25-185, looked up)
chain: CEKRPNEEKQRRHDNEVAFNAYADSTNFKKVSVDGSTAYVYMRWITNGTGTEHPIATSRVEVHYQTYRLVGNIMVDGNYNSEKPARITLYRNEKDKSITGFRIALQNMVIGDECEFIVPWYLAYGSKGVPASSANLVPIPSYSALRFIVKLSGIIPEEDKK
notes: BamJ (peptidyl-prolyl isomerase) of Porphyromonas gingivalis strain ATCC 33277; source: endogenous, P. gingivalis expressing His-tagged BamH, membranes solubilised in 1% DDM
B2: PgBamH (PGN_1735) with C-terminal 7His tag (natural protein, P. gingivalis, UniProt B2RLK9 19-455, looked up)
chain: CDDDLSPIGGSIQPPSDPVSARVDTLEFSVKTIPMGDIYNRTNYTLLGDLTDPEYGDLKADYIMQFKSPRNFKFKYPPKDGKIDSVKLSINYDSWAGDSTSIMKVSIYKINKAIPPSYYSTQELASLLDETQIIASQTFKAGNDSAFHRVRIPLPNEIGQKIYDLSVNNPSVFDTQESFYNNVLGGLYVTTTTGTGVVLSVYNTQMAIFYSYKVAADSTATASETFVNTSESYQVNHIKNSQISHLLQENDSLSCVKSPAGVMTQLTISKEQFTDAFTSNLSSSLAWQIGEAQFNISASKPSEGLMLSPPSYLLLLPQDSVRNFFEQEQTELMQPRTAFLSTIYNIKKREYRFSNISRLLMEHIKNNTEKTPEGKPYITKDLVLVLLPVKRQVAGASNSLYTSQLNNFMFPSGVKLQLGKKNKTARIGVYSMTYTDN
modifications: tri-acylated lipid anchor; O-glycosylation (7 sites)
notes: BamH (PGN_1735) of Porphyromonas gingivalis strain ATCC 33277, surface-exposed lipoprotein; 88 residues shorter than BtBamH; also called His-tagged BamH; source: C-terminally His-tagged by homologous recombination in P. gingivalis; membranes solubilised in 1% DDM; not shown: His7, C-terminal, kept
B3: BtBamD (Bt0573) (natural protein, UniProt Q8AA92 18-267, looked up)
chain: CGEYNKLLKSTDYEYKYEAAKNYFAKGQYNRSATLLNELITILKGTDKAEESLYMLGMSYYNQKDYQTAAQTFITYFNTYPRGTFTELARFHAGKSLFLDTPEPRLDQSSTYQAIQQLQMFMEYFPNSTKKQEAQDMIFALQDKLVLKELYSAKLYYNLGNYLGNNYESCVITAQNALKDYPYTDYREELSILILRARHEMAIYSVEDKKMDRYRETIDEYYAFKNEFPESKYLKEAEKIFNESQKVIKD
B4: BtBamK (Bt3949) (natural protein, UniProt Q8A0S2 21-214, looked up)
chain: CDDSKTYAEMLEDEKNAVNKFIKDKGIRIISQDEFEKNDTVTNLERNEYVALSDGVYMQIVDRGSAENKTDTFANNNEICVRYIEEDIMTRDTTCFNVFLEEWGDANQLYTNPAVFRYVAEGSYVYGTFIQMDYYWASYYQSTAVPAGWLLALPFVRNYAHVRLIVPSKVGHSSAQQYVNPYYYDIWTFSKALN
modifications: lipid anchor cysteine; O-glycosylation sites
B5: PgBamK, BamK of P. gingivalis ATCC 33277 (natural protein, UniProt B2RK12 24-203, looked up)
chain: CKKSDIKSLKEMKKDERKAIESFINRMGFTIKEGHEGQSEFDPDIMYHFDNDLYMQVLDKGKEPPVLNKTKINVRMEGFMFNRERDSIYVFNSLTSGGFQESVFRYIYKYNDGDIHFELIKCTTGSNLDMFVCEGVAFPMTMLGNKARVRLIVPFRIGPESLYSRGLTGYYKEVEYVFRD
notes: BamK (peptidyl-prolyl isomerase) of Porphyromonas gingivalis strain ATCC 33277; source: endogenous, P. gingivalis expressing His-tagged BamH, membranes solubilised in 1% DDM
B6: BtBamI (Bt3727) (natural protein, UniProt Q8A1D9 22-493, looked up)
chain: CLDNDNEVNYSPDATIRAFELDTIGYGVNYKFTIDQVSRLIYNVDSLPVNADTIINSILIKTLTTASGIVTMKDQNDQDSIVNINDSIDLTKYVNATEKNNFLVLKVWAPNMEVQNEYKVNIRMHTMVPDSLSWGKDPIANNPVRNTAEKQKVVTLGDKILLFAQNNEIYSTAIPAGSPTDRLNYGQKWDKETTGKLPDGADVTSIIRFVDKLYLLTKNKEVYNSNDGLTWTKDEVLNSDGVSVTNLITSFSDSDGSNHKKINGIAGIVEINGEKYFSFAEKDVTWEKDIDKLTVVPAEFPINNLSADVYATESGTLNAIVVGNTEDGLDNDTATVVWASEDGKAWIPMEIPSNNNCPKLVDPSIIHYNDAFYICGKETKDDAKGFQKFYTSPTLLVWKGVDRMFMLPGILPPVKLEGGVTQHPSLHESSFKGKEVNYTMVVDRNHYIWMVGGQGIDKIWRGRVNKLGFLIQ
modifications: lipid anchor cysteine; O-glycosylation at 10 sites (Ser67 among them)
B7: PgBamG, BamG of P. gingivalis ATCC 33277 (natural protein, UniProt B2RKY8 31-434, looked up)
chain: QNNNFTESPYTRFGLGRLGERTTISGHSMGGLGVGLRQGTYVNAVNPASYSAVDSMTFIFDFGASTGITWYAENGKKDNRKMGNIEYFAMLFPISKSIAMSAGVLPYSASGYQFGSVDQVEGGSVQYTRKYLGTGNLNDLYVGIGATPFKNFSIGANASFLFGRFTHSRQVIFSTEAPYNPVHLSTLYLKAAKFDFGMQYHLPLKSDRSLVIGAVYSPRVKMHSELTQIKNQVQNGVVVESETQEYIKGMDYYTLPHTLGIGFSYEKKDKLLLGADVQYSKWKGEKFYKSDCKFQDRIRVSLGGEIMPDINAVGIWPKVRYRFGLHGENSYLKVPTKGGVYQGYHIVGAVFGIGIPLNDRRSFVNVSLEYDRLIPKEGMIKENALKLTFGLTFNESWFKKLKLN
modifications: O-glycosylation (Ser85)
notes: BamG of Porphyromonas gingivalis strain ATCC 33277; source: endogenous, P. gingivalis expressing His-tagged BamH, membranes solubilised in 1% DDM

Test [1] deals with B2. Kind of test: cryo-EM structure; PgBAM complex co-purified through C-terminally His-tagged BamH from P. gingivalis membranes, in DDM, 4.9 mg/ml; 3.24 Å class without periplasmic density; AF2 models docked and refined. Particulars: both partners purified.
The target in test [2] is T1, PgBamA, BamA of P. gingivalis ATCC 33277 (P. gingivalis (endogenous in P. …, UniProt B2RHH3 20-891)).
T1 construct: BamA of Porphyromonas gingivalis strain ATCC 33277; Periplasmic part only very weak, not modelled, possibly clipped by gingipains; EL3 (39 residues) has no density; source: endogenous, P. gingivalis expressing His-tagged BamH, membranes solubilised in 1% DDM
T1 sequence (looked up): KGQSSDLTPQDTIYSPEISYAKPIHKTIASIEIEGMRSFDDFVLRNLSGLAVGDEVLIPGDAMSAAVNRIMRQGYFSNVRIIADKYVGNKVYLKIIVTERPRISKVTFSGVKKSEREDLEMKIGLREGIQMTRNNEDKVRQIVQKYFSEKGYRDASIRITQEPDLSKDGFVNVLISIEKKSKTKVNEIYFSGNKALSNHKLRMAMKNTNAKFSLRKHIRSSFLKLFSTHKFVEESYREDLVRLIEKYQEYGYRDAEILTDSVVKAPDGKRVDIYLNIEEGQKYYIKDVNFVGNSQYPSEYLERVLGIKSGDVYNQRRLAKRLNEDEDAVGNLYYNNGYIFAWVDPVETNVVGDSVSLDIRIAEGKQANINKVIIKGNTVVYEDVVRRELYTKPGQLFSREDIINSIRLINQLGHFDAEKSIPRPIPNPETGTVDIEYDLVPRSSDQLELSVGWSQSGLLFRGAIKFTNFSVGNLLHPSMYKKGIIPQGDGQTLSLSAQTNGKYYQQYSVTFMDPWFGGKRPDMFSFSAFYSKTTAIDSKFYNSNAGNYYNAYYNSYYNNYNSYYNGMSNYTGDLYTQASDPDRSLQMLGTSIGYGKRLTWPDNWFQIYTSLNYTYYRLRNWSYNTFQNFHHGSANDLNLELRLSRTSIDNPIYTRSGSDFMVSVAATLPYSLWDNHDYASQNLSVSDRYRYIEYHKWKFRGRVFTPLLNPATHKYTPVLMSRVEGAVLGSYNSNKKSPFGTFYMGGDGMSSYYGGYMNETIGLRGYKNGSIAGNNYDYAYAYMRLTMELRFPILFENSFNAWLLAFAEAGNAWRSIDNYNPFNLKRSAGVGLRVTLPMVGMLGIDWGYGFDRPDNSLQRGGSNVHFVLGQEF
The description is as above. Particulars: both partners purified.

The target of test [3] is T2, BtBamA (Bt3725), B. thetaiotaomicron BamA with N-terminal His7 tag (B. thetaiotaomicron, UniProt Q8A1E1 20-885).
T2 sequence (looked up): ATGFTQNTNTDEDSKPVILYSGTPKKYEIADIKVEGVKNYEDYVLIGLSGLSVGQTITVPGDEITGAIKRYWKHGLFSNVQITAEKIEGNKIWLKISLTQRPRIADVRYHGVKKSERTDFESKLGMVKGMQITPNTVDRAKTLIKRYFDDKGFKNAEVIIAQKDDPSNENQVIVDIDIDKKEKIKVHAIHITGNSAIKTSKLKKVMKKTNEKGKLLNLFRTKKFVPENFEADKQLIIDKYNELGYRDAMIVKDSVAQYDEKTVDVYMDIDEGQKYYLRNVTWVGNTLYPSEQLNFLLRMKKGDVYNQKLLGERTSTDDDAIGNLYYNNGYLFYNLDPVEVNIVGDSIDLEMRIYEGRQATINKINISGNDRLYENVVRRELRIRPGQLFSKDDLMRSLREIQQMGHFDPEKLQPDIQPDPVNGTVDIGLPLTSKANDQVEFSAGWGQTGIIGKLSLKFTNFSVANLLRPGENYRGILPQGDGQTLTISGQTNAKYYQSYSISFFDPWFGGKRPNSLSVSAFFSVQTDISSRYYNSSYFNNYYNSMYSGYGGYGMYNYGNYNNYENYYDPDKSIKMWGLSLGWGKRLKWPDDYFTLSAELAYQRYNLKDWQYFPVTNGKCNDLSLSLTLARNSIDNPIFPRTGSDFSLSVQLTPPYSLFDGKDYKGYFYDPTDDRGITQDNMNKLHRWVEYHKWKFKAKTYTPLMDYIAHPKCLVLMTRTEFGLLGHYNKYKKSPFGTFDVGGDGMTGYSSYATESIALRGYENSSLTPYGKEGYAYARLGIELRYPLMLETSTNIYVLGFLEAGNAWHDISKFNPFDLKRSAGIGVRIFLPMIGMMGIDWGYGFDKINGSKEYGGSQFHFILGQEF
Kind of test: affinity purification with mass spectrometry; chromosomally His7-tagged BamA as bait; B. thetaiotaomicron total membranes solubilised in TBS with 0.75% DDM and 0.75% DM; Ni IMAC, SEC in 10 mM HEPES-NaOH, 100 mM NaCl, 0.03% DDM pH 7.5; SDS-PAGE bands of pooled SEC peak fractions identified by peptide fingerprinting; IMAC elutions by quantitative proteomics against untagged wild-type cells. As to conditions: partners not purified.

The target of test [4] is T3, BtBamH (Bt4306) (B. thetaiotaomicron (endogenous in B. …, UniProt Q89ZS0 18-542, tri-acylated lipid anchor on the N-terminal cysteine)); O-glycosylation (Ser309 among the sites)).
T3 sequence (looked up): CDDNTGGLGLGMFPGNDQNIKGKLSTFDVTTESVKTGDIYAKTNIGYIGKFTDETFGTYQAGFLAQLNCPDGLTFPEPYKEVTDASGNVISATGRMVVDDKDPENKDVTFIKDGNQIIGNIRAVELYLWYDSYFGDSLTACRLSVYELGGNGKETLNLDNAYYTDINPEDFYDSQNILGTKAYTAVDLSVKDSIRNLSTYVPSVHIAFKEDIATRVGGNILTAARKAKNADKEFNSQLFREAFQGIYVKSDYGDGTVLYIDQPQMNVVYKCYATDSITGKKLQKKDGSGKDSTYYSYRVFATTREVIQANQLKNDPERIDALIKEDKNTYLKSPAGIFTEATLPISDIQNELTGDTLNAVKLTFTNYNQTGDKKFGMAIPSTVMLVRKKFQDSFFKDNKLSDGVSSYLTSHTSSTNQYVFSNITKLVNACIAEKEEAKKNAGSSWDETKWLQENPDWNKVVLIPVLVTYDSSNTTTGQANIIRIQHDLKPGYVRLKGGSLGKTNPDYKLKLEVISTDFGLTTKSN
Kind of test: cryo-EM structure; BtBAM complex co-purified through BamAhis from native membranes, in DDM, 8 mg/ml; two 3D classes (3.28 Å and 3.46 Å); AF2 models docked and refined. Particulars: both partners purified.

Take B1: in test [1], the binding result is “binds”.

For the molecule B2, the binding result in test [2] is given as “binds”.

For the molecule B3, in test [3], the binding result was “binds”.

Regarding B4, the binding result in test [4] is reported as “binds”.

For the molecule B5, the binding result in test [1] is “binds”.

As for B6, the binding result in test [4] is listed as “binds”.

For B7, the binding result in test [2] and in test [1] was “binds” in each case.

(Values after article PMC12578637, “Structure of a distinct β-barrel assembly machinery complex in the Bacteroidota” (Nature Microbiology, 2025).)
